Experimental data: the supplement of paper PMC9732359
± gives the uncertainty stated by the source.

Assay: protein stability index of a GFP-peptide fusion (yeast GPS) (PSI 1-4); higher = more stable; sorted into four equal gates, so the index is relative within each strain
Procedure, shortened: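 Plasmids in a pooled yeast library fused tiled 17-residue yeast protein peptides downstream of GFP and also expressed Cherry. Mid-log cultures grown without leucine were sorted into four equal gates by GFP/Cherry fluorescence ratio. Each gate's plasmids were PCR-amplified and Illumina-sequenced, and reads were matched to strains by barcodes. The protein stability index is derived by multiplying each gate's read frequency by its gate number and summing the results.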

Sequence	protein stability index (doa10∆)	protein stability index (pdr5∆)	protein stability index (san1∆)	protein stability index (ubr1∆)
CKLFLADVFTDDDLFET [YCG1]	3.03 ± 0.08	3.06 ± 0.051	3.03 ± 0.048	2.59 ± 0.038
CKSLISENEDTKDLLSK [CSE2]	3.23 ± 0.098	3.21 ± 0.093	3.1 ± 0.066	3.22 ± 0.12
CKVVAEMIRGRSPEEIR [SKP1]		1.95 ± 0.15	2.21 ± 0.29	1.49 ± 0.11
CLEDPEKPFNENRFQDT [POP4]	2.68 ± 0.15	3.02 ± 0.16	2.64 ± 0.24	3.03 ± 0.099
CLFENDLQRLKPLGLDR [ITC1]	2.92 ± 0.074	3.19 ± 0.11	3.15 ± 0.065	3.09 ± 0.042
CNGSALVEARSLGHQTS [MTR3]	3.52 ± 0.17		3.1 ± 0.22	
CSFITQDKMFVSNPIRK [FAS1]	1.37 ± 0.081	1.3 ± 0.073	1.25 ± 0.11	1.22 ± 0.042
CSRIIKIDKPIRTQVNT [RGR1]	1.94 ± 0.067	2.31 ± 0.047	2.09 ± 0.059	2.1 ± 0.039
CTLTADGAYALSASWDK [ASC1]	3.08 ± 0.051	3.25 ± 0.051	3.19 ± 0.075	3.19 ± 0.038
CVKAIEALFQSRPDILS [YCG1]	3.19 ± 0.083	2.47 ± 0.085	3.03 ± 0.082	3.05 ± 0.087
CVQLIKCLVEKSICFEN [SWI1]	2.49 ± 0.25	2.61 ± 0.25	2.28 ± 0.17	2.74 ± 0.15
CVRVQLIKNGKKVTAFV [RPS23A]	2.59 ± 0.085	2.66 ± 0.093	3.16 ± 0.13	3.13 ± 0.088
CVVSTDSTNLSDDAAQF [ECM29]	2.19 ± 0.086	2.6 ± 0.075	1.69 ± 0.08	3.04 ± 0.078
CVYVPNFNASLQLTTNT [SNM1]	2.06 ± 0.038	2.71 ± 0.047	2.52 ± 0.047	2.02 ± 0.065
CYFRDFEYCRIDGSTSH [ISW2]	2.51 ± 0.071	2.5 ± 0.079	2.48 ± 0.069	1.88 ± 0.042
CYVGLLTAIPILLEPIY [SNU114]	1.31 ± 0.045	1.23 ± 0.035	1.28 ± 0.064	1.34 ± 0.038
DACPLDNQPWQLARCGR [HRT1]	2.76 ± 0.068	2.56 ± 0.067	2.03 ± 0.077	2.61 ± 0.059
DADEKSSNLYETIIEAD [YJR042W/NUP85]	2.82 ± 0.067	2.95 ± 0.061	2.88 ± 0.057	3.13 ± 0.082
DADGDIDMGEDKENVPV [DPB4]	3.12 ± 0.17	3.29 ± 0.13	3.01 ± 0.15	3.66 ± 0.13
DALQDVEESSEKKQKTE [DPB4]	3.2 ± 0.082	3.42 ± 0.076	3.21 ± 0.048	3.18 ± 0.052
DANRNANNIVNIVSDAG [GRR1]	3.07 ± 0.068	3.06 ± 0.059	2.99 ± 0.041	2.97 ± 0.067
DATFAGHSLGEYAALAS [FAS1]	2.73 ± 0.14	3 ± 0.08	2.83 ± 0.11	2.49 ± 0.073
DCENFFNYVQECPAIPI [YJL039C/NUP192]	2.49 ± 0.075	2.93 ± 0.064	3.23 ± 0.069	2.99 ± 0.05
DDDAVRREVQIQLQEFL [NSL1]	3.28 ± 0.093	3.27 ± 0.1	3.36 ± 0.073	3.45 ± 0.089
DDDDNNESSSNTTVISD [DIS3]	3.01 ± 0.077	3.24 ± 0.081	2.97 ± 0.049	2.91 ± 0.05
DDDKKPDDDKIVPLTEG [RPT1]	3 ± 0.13	3.29 ± 0.11	3.16 ± 0.12	3.32 ± 0.064
DDDLFETLVLSYFSPIN [YCG1]	2.23 ± 0.069	1.44 ± 0.05	1.36 ± 0.093	1.35 ± 0.032

Sequence	protein stability index (doa10∆)	protein stability index (pdr5∆)	protein stability index (san1∆)	protein stability index (ubr1∆)
DDDNSNVDYYNVAHRIK [SNF2]	3.31 ± 0.048	3.15 ± 0.044	3.06 ± 0.031	3.23 ± 0.038
DDEEYDYNDVEVNSKKK [BRR2]	3.3 ± 0.051	3.18 ± 0.051	3.32 ± 0.053	3.33 ± 0.036
DDFDMLFGENDTSTQAY [NUT1]	3.42 ± 0.08	3.37 ± 0.071	3.51 ± 0.053	3.2 ± 0.055
DDFLSKKRKAGRPRGRP [SNF2]	3.25 ± 0.3	3.1 ± 0.12	2.96 ± 0.2	2.89 ± 0.1
DDIINNDEPSHKKIKVA [SIR2]	2.77 ± 0.052	2.84 ± 0.037	2.64 ± 0.041	2.87 ± 0.042
DDLERLKKIRAHRGIRH [RPS18A]	1.47 ± 0.18	1.31 ± 0.1	1.21 ± 0.18	1.31 ± 0.18
DDRDHFGKKRLDLAGPL [RPB2]		2.85 ± 0.16	3.2 ± 0.21	3.31 ± 0.16
DDRYGYQLYTSNPSGNY [PRE9]	2.88 ± 0.073	2.97 ± 0.081	3.06 ± 0.065	3.1 ± 0.05
DDSFSLLRIQMLLCVSY [PCI8]	2.1 ± 0.042	2.05 ± 0.045	2.08 ± 0.052	2.42 ± 0.034
DDVRRAAVIALGFVLLR [RPN2]	1.86 ± 0.14	2.09 ± 0.075	1.99 ± 0.13	1.8 ± 0.082
DDVVVLTGEAEIEQPVT [FAS1]	3.47 ± 0.12	3.27 ± 0.12	2.85 ± 0.13	2.98 ± 0.099
DDYYKEIIGGGSKSASK [ISW2]	2.37 ± 0.12	3.09 ± 0.11	3 ± 0.09	2.69 ± 0.086
DEEMLTSCTIPKAVVDH [GAL11]	2.94 ± 0.085	2.77 ± 0.076	2.44 ± 0.12	2.9 ± 0.076
DEEMTISQKLHDSILHS [RRP43]	2.7 ± 0.052	2.74 ± 0.035	2.82 ± 0.03	2.92 ± 0.035
DEEYPVKVKVSYQKLLK [PRP8]	3.03 ± 0.091	1.86 ± 0.078	1.91 ± 0.15	2.6 ± 0.054
DEFYINVDKNLNEIKEH [RPN14]	2.51 ± 0.072	2.5 ± 0.054	2.73 ± 0.062	2.92 ± 0.067
DEIDAALDFRNVSIVAN [SMC4]	1.75 ± 0.056	1.91 ± 0.05	2.03 ± 0.076	1.54 ± 0.051
DENELKKSEEKLREKVN [MTW1]	2.97 ± 0.27			
DEPDEQGNPKKRPGKLS [CYT1]		3.45 ± 0.15	3.24 ± 0.16	3.44 ± 0.089
DESTIKRIKPNTEITQK [ECM29]	2.88 ± 0.051	2.96 ± 0.053	2.95 ± 0.046	2.91 ± 0.044
DEYLGSHTDQPANVLLV [NNF1]	3.57 ± 0.25			2.92 ± 0.13
DFDDSTAQEINFKMLVL [IRR1]	2.59 ± 0.064	2.66 ± 0.053	2.67 ± 0.058	2.9 ± 0.054
DFDLLNKTLTFETETEV [FAS1]	3.34 ± 0.079	3.37 ± 0.067	3.44 ± 0.045	3.3 ± 0.051
DFGFDLDIEKEAPAGNI [MCD1]	2.76 ± 0.26			3.3 ± 0.15
DFIDTATRHVLMRQGVL [RPS3]	3.24 ± 0.055	3.06 ± 0.059	3.38 ± 0.054	2.98 ± 0.04
DFIKFDQIAVCEISGSI [BRN1]	2.32 ± 0.14	2.4 ± 0.12	2.12 ± 0.14	2.82 ± 0.076
DFREKALYIAMMTRRVV [RET1]	1.18 ± 0.077	1.58 ± 0.12		1.37 ± 0.074
